# In patent US20260263563A1, “Method of Treatment of a Thoracolumbar Deformity in a Human Subject with Achondroplasia” (Ascendis Pharma Growth Disorders A/S, priority 2023, published 2026):
# Like-named read-outs stand apart in the source and are kept apart here.
# Procedure: A population PK model was used to characterize the sparse PK data.
# Blood samples for determination of CNP-38 were acidified immediately after collection, using citrate acid buffer, to stabilize the prodrug in the sample thereby avoiding further liberation of CNP-38 from the prodrug. CNP-38 was determined in plasma (heparin) following protein precipitation and solid phase extraction and analyzed using liquid chromatography and tandem mass spectrometry detection. CNP-38 (38 amino acid peptide) was used as reference material and CNP-38 labelled with deuterium (D30-CNP-38) as internal standard (IS). Positive ions were monitored in multiple-reaction monitoring mode. The quantification was performed using the peak area ratios of analyte versus IS. The calibration curve fitting was done by 1/concentration-weighted linear regression.
# During the trial, sparse blood samples were collected at different time points in the dosing interval, and the concentration of free CNP-38 was determined using the methodology described in example 6.
# The values are provided as pmol/L CNP-38. […] The lower value in the range is the lowest free CNP-38 concentration, also referred to as the trough level or trough concentration. The number of subjects contributing with observations at the specified time interval are: 4, 8, 10 and 6 for the 6, 20, 50 and 100 μg/kg dose groups, respectively.
substance,measurement,setting,value
Navepegritide [Compound (1)],Estimated half-life for free CNP,6 μg/kg/week,101 h
same,"Free CNP-38, Mean (SD)","6 μg/kg/week, 6.5 to 7.5 days after last dose",1.7 (0.2) pmol/L
same,"Free CNP-38, Median (range)","6 μg/kg/week, samples 6.5 to 7.5 days after last dose (trough), 4 subjects",1.7 (1.4-1.9) pmol/L
same,Estimated half-life for free CNP,20 μg/kg/week,106 h
same,"Free CNP-38, Mean (SD)","20 μg/kg/week, 6.5 to 7.5 days after last dose",2.9 (9.7) pmol/L
same,"Free CNP-38, Median (range)","20 μg/kg/week, 6.5 to 7.5 days after last dose, 8 subjects",2.9 (1.6-4.2) pmol/L
same,Estimated half-life for free CNP,50 μg/kg/week,108 h
same,"Free CNP-38, Mean (SD)","50 μg/kg/week, 6.5 to 7.5 days after last dose",7.2 (2.5) pmol/L
same,"Free CNP-38, Median (range)","50 μg/kg/week, 6.5 to 7.5 days after last dose, 10 subjects",6.5 (4-16.9) pmol/L
same,Estimated half-life for free CNP,100 μg/kg/week,110 h
same,"Free CNP-38, Mean (SD)","100 μg/kg/week, 6.5 to 7.5 days after last dose",14 (4.2) pmol/L
same,"Free CNP-38, Median (range)","100 μg/kg/week, 6.5 to 7.5 days after last dose, 6 subjects",13.8 (9.4-23) pmol/L
same,"Free CNP-38, Median (range)","150 μg/kg/week, simulated with a population PK model",22.3 (19.7-25) pmol/L
same,exposure across dosing cohorts,"6, 20, 50 and 100 μg/kg",dose related increase in exposure
same,"Predicted median free CNP Cmax, Median (9-95th percentile)","BW 10 kg, 6 μg/kg/week",2.9 (1.6-5.0) pg/ml
same,"Predicted median free CNP Cmax, Median (9-95th percentile)","BW 10 kg, 20 μg/kg/week",10.4 (5.8-18.9) pg/ml
same,"Predicted median free CNP Cmax, Median (9-95th percentile)","BW 10 kg, 50 μg/kg/week",26.5 (15.2-48.1) pg/ml
same,"Predicted median free CNP Cmax, Median (9-95th percentile)","BW 10 kg, 100 μg/kg/week",53.1 (30.9-96.4) pg/ml
same,"Predicted median free CNP Cmax, Median (9-95th percentile)","BW 35 kg, 6 μg/kg/week",1.8 (1.1-3.3) pg/ml
same,"Predicted median free CNP Cmax, Median (9-95th percentile)","BW 35 kg, 20 μg/kg/week",6.6 (3.8-12.6) pg/ml
same,"Predicted median free CNP Cmax, Median (9-95th percentile)","BW 35 kg, 50 μg/kg/week",18.3 (10.3-31.5) pg/ml
same,"Predicted median free CNP Cmax, Median (9-95th percentile)","BW 35 kg, 100 μg/kg/week",36.6 (20.2-65.9) pg/ml
same,Preliminary mean free CNP level,"Cohort 1, 6 μg/kg, WEEK 0, 0.96 days post 1st dose",1.86 pmol/L
same,Preliminary mean free CNP level,"Cohort 1, 6 μg/kg, WEEK 4, 27.98 days, all observations below LLOQ, set to LLOQ ([…])",1.38 pmol/L
same,Preliminary mean free CNP level,"Cohort 1, 6 μg/kg, WEEK 8, 55.97 days",1.68 pmol/L
same,Preliminary mean free CNP level,"Cohort 1, 6 μg/kg, WEEK 12, 79.02 days",1.85 pmol/L
same,Preliminary mean free CNP level,"Cohort 1, 6 μg/kg, WEEK 26, 181.99 days",1.48 pmol/L
same,Preliminary mean free CNP level,"Cohort 1, 6 μg/kg, WEEK 39, 271.94 days",2.02 pmol/L
same,Preliminary mean free CNP level,"Cohort 1, 6 μg/kg, WEEK 52, 363.90 days",1.58 pmol/L
same,Preliminary mean free CNP level,"Cohort 2, 20 μg/kg, WEEK 0, 1.01 days",3.49 pmol/L
same,Preliminary mean free CNP level,"Cohort 2, 20 μg/kg, WEEK 4, 27.94 days",3.27 pmol/L
same,Preliminary mean free CNP level,"Cohort 2, 20 μg/kg, WEEK 8, 56.27 days",3.79 pmol/L
same,Preliminary mean free CNP level,"Cohort 2, 20 μg/kg, WEEK 12, 84.00 days",3.84 pmol/L
same,Preliminary mean free CNP level,"Cohort 2, 20 μg/kg, WEEK 26, 182.00 days",2.77 pmol/L
same,Preliminary mean free CNP level,"Cohort 2, 20 μg/kg, WEEK 39, 273.47 days",5.19 pmol/L
same,Preliminary mean free CNP level,"Cohort 3, 50 μg/kg, WEEK 0, 1.00 days",10.58 pmol/L
same,Preliminary mean free CNP level,"Cohort 3, 50 μg/kg, WEEK 4, 27.99 days",7.29 pmol/L
same,Preliminary mean free CNP level,"Cohort 3, 50 μg/kg, WEEK 8, 56.00 days",9.24 pmol/L
same,Preliminary mean free CNP level,"Cohort 3, 50 μg/kg, WEEK 12, 83.91 days",7.62 pmol/L
same,Preliminary mean free CNP level,"Cohort 4, 100 μg/kg, WEEK 0, 0.99 days",15.29 pmol/L
same,half-life for free CNP,"population PK model, weekly s.c. dosing",~ 110 hours
same,exposure to free CNP,weekly s.c. dosing,Sustained exposure to free CNP was observed
